Measured values published in patent publication US20260085127A1 (BRIGHTPATH BIOTHERAPEUTICS, published 2026).
Read-outs that look alike come from different tables or passages of the source.

Assays:
[1] = biological target: T1, human CD39 (Accession No. NM_001776.6) expressed on cells (human, UniProt P49961 1-510); assay: flow cytometry, 293T/TIM-3 + CD39 cells, KD from MFI
T1 construct: whole, on cells; On Jurkat, 293T or SK-MEL28 cells; also called Jurkat/CD39; 293T/CD39
T1 sequence (looked up): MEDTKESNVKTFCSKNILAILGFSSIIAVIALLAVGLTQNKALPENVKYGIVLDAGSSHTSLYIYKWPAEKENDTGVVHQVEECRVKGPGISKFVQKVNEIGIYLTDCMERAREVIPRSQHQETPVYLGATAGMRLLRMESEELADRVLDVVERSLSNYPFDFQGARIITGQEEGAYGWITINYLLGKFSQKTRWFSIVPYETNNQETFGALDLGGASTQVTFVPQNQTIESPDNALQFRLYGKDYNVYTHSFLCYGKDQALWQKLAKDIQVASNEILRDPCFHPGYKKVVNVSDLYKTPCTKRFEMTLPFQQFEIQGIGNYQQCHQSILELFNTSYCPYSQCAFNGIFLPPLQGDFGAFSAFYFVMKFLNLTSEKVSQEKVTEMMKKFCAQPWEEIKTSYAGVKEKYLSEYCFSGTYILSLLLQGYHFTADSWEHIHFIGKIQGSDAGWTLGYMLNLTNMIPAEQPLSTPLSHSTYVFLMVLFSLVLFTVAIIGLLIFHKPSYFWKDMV

[2] = biological target: T1, human CD39 (Accession No. NM_001776.6) …; assay: flow cytometry, Jurkat/CD39 cells, KD from MFI
[3] = biological target: T1, human CD39 (Accession No. NM_001776.6) …; assay: flow cytometry, 293T/CD39 cells, KD from MFI
[4] = biological target: T1, human CD39 (Accession No. NM_001776.6) …; assay: flow cytometry, Jurkat/TIM-3 + CD39 cells, KD from MFI
[5] = biological target: T2, recombinant human CD39 (in-house product, 38 to 478 aa of Accession No. NM_001776.6) (human, UniProt P49961 38-478); assay: SPR Biacore8K, antibody captured on anti-human IgG, antigen as analyte
T2 construct: also called rhCD39; human CD39-ECD; not shown: Myc and His tags at the C-terminus are named only for the PE-lab
T2 sequence (looked up): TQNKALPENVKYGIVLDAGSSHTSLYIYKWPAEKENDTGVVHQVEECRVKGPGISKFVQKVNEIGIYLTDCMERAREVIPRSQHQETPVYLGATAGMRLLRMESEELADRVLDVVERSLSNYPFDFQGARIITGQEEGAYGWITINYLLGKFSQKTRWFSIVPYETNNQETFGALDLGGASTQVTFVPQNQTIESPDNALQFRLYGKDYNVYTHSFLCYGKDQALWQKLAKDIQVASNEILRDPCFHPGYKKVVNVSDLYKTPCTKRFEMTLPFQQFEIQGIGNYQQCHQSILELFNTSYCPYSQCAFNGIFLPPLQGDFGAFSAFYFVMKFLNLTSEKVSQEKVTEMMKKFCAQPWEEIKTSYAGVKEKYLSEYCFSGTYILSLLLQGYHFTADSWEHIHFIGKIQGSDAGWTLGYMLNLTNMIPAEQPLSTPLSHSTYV

[6] = biological target: T3, biotinylated human TIM-3-Fc antigen (in-house product, SEQ ID No: 118) (human, biotinylated); assay: competition ELISA: human Galectin-9 coated, biotinylated human TIM-3-Fc pre-mixed with the antibody dilution series, Streptavidin-HRP, A450; blocked ligand: human Galectin-9
[7] = biological target: T3, biotinylated human TIM-3-Fc antigen …; assay: flow cytometry, inhibition of biotinylated TIM-3-Fc binding to phosphatidylserine on apoptotic Jurkat cells
[8] = biological target: T1, human CD39 (Accession No. NM_001776.6) …; assay: flow cytometry, 293T/CD39 cells, KD from MFI; remark: listed apart in the source
[9] = biological target: T2, recombinant human CD39 (in-house …); assay: SPR Biacore8K, antibody captured on anti-human IgG, antigen as analyte; remark: listed apart in the source
[10] = biological target: T3, biotinylated human TIM-3-Fc antigen …; assay: competition ELISA: human Galectin-9 coated, biotinylated human TIM-3-Fc pre-mixed with the antibody dilution series, Streptavidin-HRP, A450; blocked ligand: human Galectin-9; remark: listed apart in the source
[11] = biological target: T3, biotinylated human TIM-3-Fc antigen …; assay: flow cytometry, inhibition of biotinylated TIM-3-Fc binding to phosphatidylserine on apoptotic Jurkat cells; remark: listed apart in the source

B1: 6-3hIG_sc (antibody)
scFv: QVQLVQSGAELVKPGASVKLSCKASGFSIKDTYVHWVKQAPGKGLEWIGKIDPANVNTKFDPKFQGRVTITADTSTNTAYLQLSSLRSEDTAVYYCALYGYDDDAYYFDYWGQGTLVTVSSGGGGSGGGGSGGGGSGGGGSEIVLTQSPASLSVSPGERATISCRASESVDNYGISFMNWFQQKPGQAPKLLIYAASNQGSGVPARFSGSGSGTDFTLTISSLEPEDFAVYYCQQSKEVPYTFGQGTKLEIK
notes: scFv-Fc homodimer, anti-CD39; also called scFv-Fc homodimeric antibody of anti-CD39_scFv antibody (humanized) 6-3hIG; not shown: GGGG linker and Fc-LALA (human IgG1 Fc with L234A and L235A)
- Kd [1]: 26.6 nM
- Kd [2]: 42.1 nM
- Kd [3]: 18.6 nM
- Kd [4]: 33.6 nM
- Kd [5]: 0.465 nM
- koff [5]: 0.000187 s⁻¹
- kon [5]: 402000 M⁻¹ s⁻¹

B2: HuP4_11_Hu003_Ct (bispecific antibody)
chain 1: EVQLVESGGALVQPGRSLRLSCAVSGFTLSNYGVHWVRQAPGKGLEWVAVILRRGSTDYNAAFMSRFTISKDNSKNTVYLQMNSLRADDTAVVAGDYFDYWGQGTTVTVSSGGGGSGGGGSGGGGSGGGGSDIVMTQSQKFMSTSVGDRVSITCKASQNVGTNVAWYQQKPGQSPKLLIYSASYRYSGVPDRFTGSGSGTDFTLTISNMQSEDLADYFCQQYNSYPLTFGGGTKLEIK
chain 2: QVQLQESGGGLVKPGGSLKLSCAASGFTFSSYYMSWVRQTPDKRLEWVATISNSGGSTYYPDSVKDRFTISRDNAKNTLYLQMSSLKSEDTAMYYCARDPYYTNYVPMDYWGQGTMVTVSSGGGGSGGGGSGGGGSGGGGSDIVMTQSPSFLSASVGDRVTITCKASQYVDTYVAWYQQRPGKAPKPLIYSASTRHTGVPSRFSGSGSGTEFTLTISSLQPEDFATYFCAQYSSSPLTFGGGTKLELK
- IC50 (read off the curve) [6]: ~3 nM
- IC50 [7]: 30.7 nM

B3: 6-3hIG_Hu003_Fsc (bispecific antibody, not shown: a dimerising Fc or GST)
VH: QVQLVQSGAELVKPGASVKLSCKASGFSIKDTYVHWVKQAPGKGLEWIGKIDPANVNTKFDPKFQGRVTITADTSTNTAYLQLSSLRSEDTAVYYCALYGYDDDAYYFDYWGQGTLVTVSS
VL: EIVLTQSPASLSVSPGERATISCRASESVDNYGISFMNWFQQKPGQAPKLLIYAASNQGSGVPARFSGSGSGTDFTLTISSLEPEDFAVYYCQQSKEVPYTFGQGTKLEIK
scFv: QVQLQESGGGLVKPGGSLKLSCAASGFTFSSYYMSWVRQTPDKRLEWVATISNSGGSTYYPDSVKDRFTISRDNAKNTLYLQMSSLKSEDTAMYYCARDPYYTNYVPMDYWGQGTMVTVSSGGGGSGGGGSGGGGSGGGGSDIVMTQSPSFLSASVGDRVTITCKASQYVDTYVAWYQQRPGKAPKPLIYSASTRHTGVPSRFSGSGSGTEFTLTISSLQPEDFATYFCAQYSSSPLTFGGGTKLELK
- Kd [8]: 17.6 nM
- Kd [9]: 0.21 nM
- IC50 (read off the curve) [10]: ~2 nM
- IC50 [11]: 15.5 nM

B4: T86_Hu003_Fsc (bispecific antibody, not shown: a dimerising Fc or GST)
VH: QIQLVQSGPELKKPGETVKISCEASGYTFINYGMNWVKQAPGKGLKWMGWINTYTGEPTYADDFKGRFAFSLETSANTAYLQINNLKNEDTATYFCARKGYYGYPNYYAMDYWGQGTSVTVSS
VL: DIVMTQSQKFMSTSVGDRVSITCKASQNVGTAVAWYQQKPGQSPKLLIYSASNRYTGVPDRFTGSGSGTDFTLTISNMQSEDLADYFCQQYSSYPITFGTGTKLEIK
scFv: QVQLQESGGGLVKPGGSLKLSCAASGFTFSSYYMSWVRQTPDKRLEWVATISNSGGSTYYPDSVKDRFTISRDNAKNTLYLQMSSLKSEDTAMYYCARDPYYTNYVPMDYWGQGTMVTVSSGGGGSGGGGSGGGGSGGGGSDIVMTQSPSFLSASVGDRVTITCKASQYVDTYVAWYQQRPGKAPKPLIYSASTRHTGVPSRFSGSGSGTEFTLTISSLQPEDFATYFCAQYSSSPLTFGGGTKLELK
notes: Fab-scFv-Fc heterodimer: anti-CD39 Fab T86 (Knob)
- Kd [8]: 9.19 nM
- Kd [9]: 2.4 nM
- IC50 [11]: 23.9 nM

B5: Tre291_Hu003_Fsc (bispecific antibody, not shown: a dimerising Fc or GST)
VH: QVQLKQSGPGLVQPSQSLSITCTVSGFSLTSYGVHWVRQSPGKGLEWLGVIWRRGSTDYNAAFMSRLSITKDTSKSQVFFKMNSLQTDDTAIYYCAGVRGDAMDYWGQGTSVTVSS
VL: DIVMTQSHKSMSTSVGDRVSVTCKASQNVGTNVAWYQQKPGQSPKALIYSASYRYSGVPDRFTGSGSGTDFTLTISNVQSEDLAEYFCQQYNSYPLTFGGGTKLEIK
scFv: QVQLQESGGGLVKPGGSLKLSCAASGFTFSSYYMSWVRQTPDKRLEWVATISNSGGSTYYPDSVKDRFTISRDNAKNTLYLQMSSLKSEDTAMYYCARDPYYTNYVPMDYWGQGTMVTVSSGGGGSGGGGSGGGGSGGGGSDIVMTQSPSFLSASVGDRVTITCKASQYVDTYVAWYQQRPGKAPKPLIYSASTRHTGVPSRFSGSGSGTEFTLTISSLQPEDFATYFCAQYSSSPLTFGGGTKLELK
notes: Fab-scFv-Fc heterodimer: anti-CD39 Fab Tre291 (Knob)
- Kd [8]: 25.4 nM
- Kd [9]: 1.36 nM
- IC50 [11]: 22.4 nM

B6: mAnE67_Hu003_Fsc (bispecific antibody, not shown: a dimerising Fc or GST)
VH: EVQLVESGGGLVKPGGSRKLSCAASGFTFSDYGMHWVRQAPEKGLEWVAYISSGSSIIYYADTVKGRFTISRDNAKNTLFLQMTGLRSEDTAMYYCARKDYPYAMDYWGQGTSLAVSS
VL: SIVMTQTPKFMSTSVGDRVSVTCKASQNVGTNVAWYQQKPGQSPKALIYWASNRFTGVPDRFTGSGSGTDFTLTISNVQSEDLADYFCQQYSSSPYTFGSGTKLEIK
scFv: QVQLQESGGGLVKPGGSLKLSCAASGFTFSSYYMSWVRQTPDKRLEWVATISNSGGSTYYPDSVKDRFTISRDNAKNTLYLQMSSLKSEDTAMYYCARDPYYTNYVPMDYWGQGTMVTVSSGGGGSGGGGSGGGGSGGGGSDIVMTQSPSFLSASVGDRVTITCKASQYVDTYVAWYQQRPGKAPKPLIYSASTRHTGVPSRFSGSGSGTEFTLTISSLQPEDFATYFCAQYSSSPLTFGGGTKLELK
notes: Fab-scFv-Fc heterodimer: anti-CD39 mAnE67 arm (Knob)
- Kd [8]: 3.94 nM
- Kd [9]: 2.7 nM
- IC50 [11]: 19.8 nM

B7: mAnE67_sc (antibody)
scFv: EVQLVESGGGLVKPGGSRKLSCAASGFTFSDYGMHWVRQAPEKGLEWVAYISSGSSIIYYADTVKGRFTISRDNAKNTLFLQMTGLRSEDTAMYYCARKDYPYAMDYWGQGTSLAVSSGGGGSGGGGSGGGGSGGGGSSIVMTQTPKFMSTSVGDRVSVTCKASQNVGTNVAWYQQKPGQSPKALIYWASNRFTGVPDRFTGSGSGTDFTLTISNVQSEDLADYFCQQYSSSPYTFGSGTKLEIK
notes: scFv-Fc homodimer, anti-CD39 (mouse variable regions); also called scFv-Fc homodimeric antibody of anti-CD39_scFv antibody mAnE67; not shown: linker and Fc-LALA (human IgG1 Fc with L234A and L235A)
- Kd [1]: 5.5 nM
- Kd [2]: 0.334 nM
- Kd [3]: 2.19 nM
- Kd [4]: 0.343 nM
- Kd [5]: 4.75 nM
- koff [5]: 0.00187 s⁻¹
- kon [5]: 393000 M⁻¹ s⁻¹
